Assay results from patent US20250277031A1 (BEIJING HANMI PHARMACEUTICAL, published 2025).

Columns and labels:
[1] = target: T1, mouse CD47 on mouse red blood cells (mouse, UniProt Q61735 19-303); experiment: flow cytometry on mouse RBCs
T1 construct: whole, on cells; also called Mouse RBCs
T1 sequence (looked up): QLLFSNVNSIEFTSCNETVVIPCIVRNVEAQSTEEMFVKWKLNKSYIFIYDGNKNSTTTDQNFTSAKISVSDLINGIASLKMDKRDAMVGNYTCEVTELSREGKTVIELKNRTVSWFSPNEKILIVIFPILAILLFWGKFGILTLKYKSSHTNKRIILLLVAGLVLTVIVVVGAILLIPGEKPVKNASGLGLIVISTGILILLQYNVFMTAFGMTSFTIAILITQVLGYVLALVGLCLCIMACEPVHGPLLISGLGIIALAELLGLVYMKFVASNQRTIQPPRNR
Method: The species specificity of the chimeric anti-human CD47 monoclonal antibodies was determined by flow cytometer FACS. Normal human RBCs internally donated, cynomolgus RBCs, rat RBCs and mouse RBCs were collected, washed once with cold PBS (GIBCO, Catalog number 14190) containing 2% FBS (Hyclone, Catalog number SH30084.03). The RBCs (2×10⁶ cells per tube) were resuspended in 100 μL of cold PBS containing 2% FBS, and the serially diluted anti-human CD47 antibody samples and the control CC-90002 and the isotype control were added therein. Flow tubes were incubated on ice for 30 minutes. The cells were washed twice with PBS containing 2% FBS. Then the pellets were resuspended in 200 μL of cold PBS containing 2% FBS and FITC-labeled anti-human IgG antibody diluted 1:1000 (Beijing Zhongshan Golden Bridge, Catalog number ZF0306), incubated on ice for 30 minutes in the dark. The cells were washed twice with PBS containing 2% FBS, then resuspended in 500 μL of cold PBS. The cell suspension obtained was detected and analyzed on a flow cytometer (BD, FACS Calibur), and the fluorescence intensities of the RBCs were read.

[2] = target: T2, recombinant human CD28 (ACROBiosystems) (human, UniProt P10747 19-152); experiment: ELISA, plate coated with 1 µg/mL recombinant human protein, anti-human IgG-HRP, OD450; antibody concentration not given
T2 construct: counted here as a CD28 family member
Method: (§1) Binding specificity of the chimeric anti-human CD47 mAbs was determined by ELISA. A 96-well high-adsorption ELISA plate was coated with 1 μg/mL of the recombinant human PD1, CD28, CTLA4, ICOS, BTLA, CD47, PD-L2, CD80, CD86, B7-H2, CD47, SIRPα and SIRPγ (all from ACROBiosystems), at 100 μL per well using carbonate buffer solution, pH=9.6 at 4° C. overnight. The plate was washed 5 times with PBST, and then blocked using PBST with 1% BSA, 300 μL/well, and incubated at 25° C. for 1 hour, and then washed 5 times with PBST. The chimeric anti-human CD47 mAb samples serially diluted in PBST with 1% BSA and the control CC-90002 and the isotype control were added, 100 μL/well, incubated at 25° C. for 1 hour, and then washed 5 times with PBST. The horseradish peroxidase-labeled anti-human IgG antibody (Chemicon, catalog number AP309P) diluted 1:10000 in PBST with 1% BSA was then added, 100 μL per well, and incubated at 25° C. for 1 hour. The plate was washed 5 times with PBST. The colorimetric substrate TMB was added, 100 μL/well, and developed at room temperature for 10 minutes. 1M H₂SO₄ was added, 100 μL/well, to stop the development. The absorbance at 450 nm was read on a microplate reader.

[3] = target: T3, recombinant human BTLA (ACROBiosystems) (human, UniProt Q7Z6A9 31-151, limits assumed); experiment: as above
T3 construct: counted here as a CD28 family member
Method: as §1

[4] = target: T4, recombinant human B7-H2 (ACROBiosystems) (human, UniProt O75144 19-258, limits assumed); experiment: as above
T4 construct: counted here as a B7 family member
T4 sequence (looked up): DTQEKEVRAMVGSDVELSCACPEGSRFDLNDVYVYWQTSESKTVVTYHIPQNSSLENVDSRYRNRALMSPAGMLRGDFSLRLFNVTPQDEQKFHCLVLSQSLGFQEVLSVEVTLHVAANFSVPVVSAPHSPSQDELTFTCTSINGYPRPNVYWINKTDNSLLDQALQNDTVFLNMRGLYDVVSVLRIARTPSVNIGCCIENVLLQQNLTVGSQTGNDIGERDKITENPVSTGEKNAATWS
Method: as §1

[5] = target: T5, recombinant human CD47-Fc protein (ACROBiosystems, catalog number CD7-H52A5) (human, UniProt Q08722 19-139); experiment: blocking ELISA: plate coated with human CD47-Fc, 2 nM biotin-labelled SIRPα as the blocked ligand, falling OD450 curve; the sheet labels the half-maximal value EC50
T5 construct: bought; not shown: Fc part of a bought fusion protein, not described
Method: A 96-well high-adsorption ELISA plate was coated with 1 μg/mL of the recombinant human CD47-Fc (ACROBiosystems) at 100 μL per well using carbonate buffer solution, pH=9.6 at 4° C. overnight. The plate was washed 5 times with PBST, and then blocked using PBST with 1% BSA, 300 μL/well, and incubated at 25° C. for 1 hour, and then washed 5 times with PBST. The anti-human CD47 antibody samples were added, 50 μL/well, the biotin-labelled SIRPα (ACROBiosystems) was added at a concentration of 4 nM (a final concentration of 2 nM), 50 μL/well, incubated at 25° C. for 90 minutes, and then washed 5 times with PBST. The Streptavidin-HRP (BD Pharmingen, catalog number 554066) diluted 1:1000 in PBST with 1% BSA was then added, 100 μL per well, and incubated at 25° C. for 1 hour. The plate was washed 5 times with PBST. The colorimetric substrate TMB was added, 100 μL/well, and developed at room temperature for 10 minutes. 1M H₂SO₄ was added, 100 μL/well, to stop the development. The absorbance at 450 nm was read on a microplate reader.

T3 sequence (Q7Z6A9 31-151 limits assumed): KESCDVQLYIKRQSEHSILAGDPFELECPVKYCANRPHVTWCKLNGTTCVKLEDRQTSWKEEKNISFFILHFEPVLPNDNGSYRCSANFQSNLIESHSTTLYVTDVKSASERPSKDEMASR
T5 sequence (Q08722 19-139 limits assumed): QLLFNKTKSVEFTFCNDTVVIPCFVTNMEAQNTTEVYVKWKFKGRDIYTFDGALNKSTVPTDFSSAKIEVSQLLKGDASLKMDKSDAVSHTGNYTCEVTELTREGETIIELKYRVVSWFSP

binding result [1]: no binding | binding result [2]: no binding | binding result [3]: no binding | binding result [4]: no binding | IC50 [5]: 1.86 nM
B1: chimeric anti-human CD47 monoclonal antibody mAb-18-5 (antibody, human IgG1, kappa)
heavy: not shown
light: DIVMTQSQKFMSTSVGDRVSITCKASQNVRTSIAWYQQKSGQSPKTLIYLASNRHTGVPDRFTGSGSGTDFTLTISNVQSEDLADYFCLQHWNYPFTFGSGTKLEIKRTVAAPSVFIFPPSDEQLKSGTASVVCLLNNFYPREAKVQWKVDNALQSGNSQESVTEQDSKDSTYSLSSTLTLSKADYEKHKVYACEVTHQGLSSPVTKSFNRGEC
